These results are taken from publication PMC4407285 (Cell Reports, 2015).

Test [1] concerns the target Candida glabrata Slx1 (Candida glabrata) (UniProt Q6FML9). Description: AUC.
The target is the same in test [2]. The test can be described thus: SEC-MALS. Background: SEC sorts molecules by how far they enter the pores of the column.
The target in a further test is T1, Candida glabrata Slx1 (Candida glabrata, UniProt Q6FML9 1-312).
T1 sequence: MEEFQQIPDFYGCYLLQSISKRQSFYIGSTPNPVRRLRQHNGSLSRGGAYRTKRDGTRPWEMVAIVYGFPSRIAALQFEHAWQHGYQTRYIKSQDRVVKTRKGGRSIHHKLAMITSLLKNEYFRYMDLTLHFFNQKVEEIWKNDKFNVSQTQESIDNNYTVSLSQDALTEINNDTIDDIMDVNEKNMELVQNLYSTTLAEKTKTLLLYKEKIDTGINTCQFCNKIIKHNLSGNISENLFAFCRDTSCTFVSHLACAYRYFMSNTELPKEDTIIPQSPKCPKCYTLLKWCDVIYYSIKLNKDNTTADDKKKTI
Description: co-purification.

A word on the stoichiometry N: it is a count of units in the complex or per binding partner. Consider “Candida glabrata Slx4 conserved C-terminal domain (domain or fragment)”, for which the stoichiometry N in test [1] and in test [2] was 1 each time.

B1: Candida glabrata Slx4 CCD3 (residues 647-726) (domain or fragment, UniProt Q6FJQ6 647-726, looked up)
chain: SNQKKVGVTSKSEVFEFLTHLVKQEPDLLTRIYCFQPITMNDLINKLRNKDSFVDLIDDGTIREWTDKLGICIRSNNLKD
For B1, the binding result with Candida glabrata Slx1 was “binds”.
